Legend:
[1] = In vitro SPF on PMMA plates using the SPF-290S Analyzer System; conditions: sunscreen containing 5% UV filter; 1.4 mg sunscreen per cm^2 on PMMA plates; triplicate
[2] = Solubility in Tegosoft TN (C12-C15 alkylbenzoate); format: physicochemical
Description: (§1) Cesium carbonate (16 g, 50 mmol) and potassium iodate (50 mg) were added to a solution of 4-(1,3-benzoxazol-2-yl)-phenol I (8.9 g, 42 mmol) (prepared according to Passerini, J. Chem. Soc. 1954, 2256-2257) in NMP (N-methylpyrolidon) (100 mL) and the mixture stirred under Argon at 80° C. for 20 min. A solution of mesylated poly(glycerol-b-propylene oxide) (7.48 g, 4.4 mmol, 35 mmol MsO) in NMP (60 mL) was added dropwise and the reaction mixture stirred at 80° C. for 12 h. Water and ethyl acetate were added (200 mL each), an orange precipitate was separated by filtration, and the aqueous layer was extracted with ethyl acetate (2×100 mL). […] The amount of attached chromophore was determined using ^1H NMR, comparing the integration of the signals of the phenol's aromatic protons at 6.99 and 8.12 ppm to trimethylolpropane CH3 at 0.87 ppm, to give an average of about 8 chromophores/polymer.
Hybrane200 D2000 (WO 99/16810) was supplied from DSM Hybrane (Geleen, The Netherlands) with a Mn of about 2000 g/mol as determined by GPC. […] The amount of attached chromophore was determined using ^1H NMR, comparing the integration of the signals of the aromatic protons at 6.59 and 7.85 ppm to the CH3 of the aliphatic chain at 0.86 ppm, to give an average of about 8 chromophores/polymer.

[3] = UV absorption (specific extinction E1/1) of the polymeric filter; format: physicochemical; conditions: in CHCl3 at 309 nm
Description: as §1
Potassium tert. butylate (2.3 g) were added to a solution of 4-Dicyanomethylene-2,6-dimethyl-1,4-dihydropyridine-N-ethane-2-ol (4.3 g, 20 mmol) in NMP (50 mL) and the mixture stirred under Argon at rt. for 10 min. […] This product was chromatographed in Ethylacetate/Ethanol=19:1 and the fractions were analyzed by GPC. […]
Hybrane200 D2000 (WO 99/16810) was supplied from DSM Hybrane (Geleen, The Netherlands) with a Mn of about 2000 g/mol as determined by GPC. […]

[4] = Photostability according to G. Berset et al., applying the prepared sunscreen instead of a liquid film; format: physicochemical; conditions: Brij O/W sunscreen containing 5% (w/w) chromophore; Berset method
Description: The photostability of the conjugates according to the present invention may be measured according to G. Berset et al. International Journal of Cosmetic Science 1996, 18(3), 167-177.
The hyperbranched chromophore II (5.0 g, corresponding to 5% (w/w) UV-filter/sunscreen) was dissolved in Tegosoft TN at 80° C. and added to a mixture of Brij 72 (INCI: Steareth-2) (2.0 g), Brij 721 (INCI: Steareth-21) (2.0 g), Lanette O (cetearyl alcohol) (2.0 g), Estol GMM 3650 (glyceryl monomyristate) (2.0 g), BHT (butylhydroxytoluene) (0.05 g) and Phenonip (phenoxyethanol and methyl-, ethyl-, propyl-, butylparaben) (0.8 g). The mixture was shortly heated to 80° C. in order to melt solid emulsifiers. To the still warm mixture (70-80° C.) a preheated solution (˜80° C.) of glycerin (4.0 g) and EDTA BD (0.1 g) in water (62.95 g) and subsequently 10% aqueous KOH (0.1 g) as well as Sepigel 305 (polyacrylamide and C13-C14 isoparaffin and Laureth-7) (1.0 g) were added slowly under continuous stirring. The resulting emulsion was stirred until a temperature of about 40° C. was reached, homogenized with 24,000 rpm using a ULTRA-TURRAX®, and finally stirred for an additional hour. […] Each in vitro SPF was determined in triplicate to give for chromophore II and Parsol® MCX an average of 6.6 (II) and 6.8, respectively.

Structure (SMILES)	in vitro SPF (average) [1]	solubility in Tegosoft TN [2]	E1/1/-value [3]	photostability: chromophore recovered [4] [%]
CCCCC(CC)COC(=O)C=Cc1ccc(OC)cc1 (centres unmarked) [Parsol® MCX, 2-ethylhexyl 4-methoxycinnamate, reference compound]	6.8	–	–	–
CCC(COCC(COCC(C)Oc1ccc(-c2nc3ccccc3o2)cc1)OCC(C)OCC(C)Oc1ccc(-c2nc3ccccc3o2)cc1)(COCC(COCC(C)OCC(C)Oc1ccc(-c2nc3ccccc3o2)cc1)OCC(C)Oc1ccc(-c2nc3ccccc3o2)cc1)COCC(COCC(COCC(C)Oc1ccc(-c2nc3ccccc3o2)cc1)OCC(C)Oc1ccc(-c2nc3ccccc3o2)cc1)OCC(COCC(C)Oc1ccc(-c2nc3ccccc3o2)cc1)OCC(C)Oc1ccc(-c2nc3ccccc3o2)cc1 (centres unmarked) [chromophore II]	6.6	at least 24 % (w/w)	840	96
